Assay results as given in PMC5389812, “Rv3634c from Mycobacterium tuberculosis H37Rv encodes an enzyme with UDP-Gal/Glc and UDP-GalNAc 4-epimerase activities” (PLoS ONE, 2017).

Molecular target: the molecule itself
Assay: SEC; Superdex 200 16/600 GL column, FPLC buffer (20 mM Tris pH 8.0, 100 mM NaCl); calibrated with conalbumin, ovalbumin, carbonic anhydrase, ribonuclease A and aprotinin; molecular weight from Kav

Row | Protein | stoichiometry N
1 | His-tagged Rv3634c (H3634) S121A mutant (enzyme, not shown: His6, N-terminal, kept) MRALVTGAAGFIGSTLVDRLLADGHSVVGLDNFATGRATNLEHLADNSAHVFVEADIVTADLHAILEQHRPEVVFHLAAQIDVRRSVADPQFDAAVNVIGTVRLAEAARQTGVRKIVHTSAGGSIYGTPPEYPTPETAPTDPASPYAAGKVAGEIYLNTFRHLYGLDCSHIAPANVYGPRQDPHGEAGVVAIFAQALLSGKPTRVFGDGTNTRDYVFVDDVVDAFVRVSADVGGGLRFNIGTGKETSDRQLHSAVAAAVGGPDDPEFHPPRLGDLKRSCLDIGLAERVLGWRPQIELADGVRRTVEYFRHKHTD | 2
2 | His-tagged Rv3634c (H3634) Y146F mutant (enzyme, not shown: His6, N-terminal, kept) MRALVTGAAGFIGSTLVDRLLADGHSVVGLDNFATGRATNLEHLADNSAHVFVEADIVTADLHAILEQHRPEVVFHLAAQIDVRRSVADPQFDAAVNVIGTVRLAEAARQTGVRKIVHTSSGGSIYGTPPEYPTPETAPTDPASPFAAGKVAGEIYLNTFRHLYGLDCSHIAPANVYGPRQDPHGEAGVVAIFAQALLSGKPTRVFGDGTNTRDYVFVDDVVDAFVRVSADVGGGLRFNIGTGKETSDRQLHSAVAAAVGGPDDPEFHPPRLGDLKRSCLDIGLAERVLGWRPQIELADGVRRTVEYFRHKHTD | 2
3 | His-tagged Rv3634c (H3634) K150R mutant (enzyme, not shown: His6, N-terminal, kept) MRALVTGAAGFIGSTLVDRLLADGHSVVGLDNFATGRATNLEHLADNSAHVFVEADIVTADLHAILEQHRPEVVFHLAAQIDVRRSVADPQFDAAVNVIGTVRLAEAARQTGVRKIVHTSSGGSIYGTPPEYPTPETAPTDPASPYAAGRVAGEIYLNTFRHLYGLDCSHIAPANVYGPRQDPHGEAGVVAIFAQALLSGKPTRVFGDGTNTRDYVFVDDVVDAFVRVSADVGGGLRFNIGTGKETSDRQLHSAVAAAVGGPDDPEFHPPRLGDLKRSCLDIGLAERVLGWRPQIELADGVRRTVEYFRHKHTD | 2
